Reference: the DeepSol protein solubility set

Assay: soluble on expression in E. coli; label from the status in PepcDB or PDB records

Row | Sequence | soluble on expression in E. coli
1 | MSLKALNKETAPKVQRPERIIQFGEGNFLRAFVDWIIYNMNQKTDFNSSVVVVQPIDKGMVDMLNAQDDLYHVNLQGLDKGEVVNSLTMIDVISRALNPYTQNDEFMKLAEQPEMRFVISNTTEAGIAFDPTCKLEDAPASSYPGKLTQLLYHRFKTFNGDKTKGLIIFPCELIFLNGHKLKETIYQYIDLWNLGNEFKTWFEEACGVYATLVDRIVPGFPRKDIAAIKEKIQYDDNLVVQAEIFHLWVIEAPQEVAKEFPADKAGLNVLFVPSEAPYHERKVTLLNGPHTVLSPVAYLSGVNIVRDACQHEVIGKYIHKVMFDELMETLNLPKEELKKFAEDVLERFNNPFVDHAVTSIMLNSFPKYETRDLPGLKTYLERKGELPKGLVLGLAAIITYYKGGVRADGAEIVPNDAPEIMNLLKELWATGCTKKVTEGVLAAEFIWGEDLNKIPGLAAAVKADLDSIQEKGMLETVKGILEGHHHHHH | soluble
2 | GSHMEAPILYEDPPEKLTSKDGRAANMKITSWNVDGLRAWVKKNGLDWVRKEDPDILCLQETKCAEKALPADITAMPEYPHKYWAGSEDKEGYSGVAMLCKTEPLNVTYGIGKEEHDKEGRVITAEFPDFFLVTAYVPNASRGLVRLDYRKTWDVDFRAYLCGLDARKPLVLCGDLNVAHQEIDLKNPKGNRKNAGFTPEEREGFTQLLEAGFTDSFRELYPDQAYAYTFWTYMMNARSKNVGWRLDYFVLSSALLPGLCDSKIRNTAMGSDHCPITLFLAV | soluble
3 | MFVAEHEVEIRYAETDQMGVVYHSNYLVWLELGRTKLIQDLGFSYVEMEKEGIISPVLDLQISYRKAMRYGEKASVKTWVDTVSPLRVVYGYEIYNGDGELCITASTTNICAKKEGFRPVSFKKLYPEWYAKYEEIKKK | not soluble
4 | MTGVRQDAWTKEEDELLANVVLQYIREGGTQLEAFAEVGRRLSRTAAACGFRWNSCVRKQYKEEIEQAKQERKMRKKETPSTKESEGQAKVETAVKSHLSWAEVLAFLQAEEQKARDARRTADENRALKNDMEQLQQMVTKLQMEKESLQKQLAAIQEEYKTLLSIMERARKMVTDSGKPAPNAVAEGVDEG | not soluble
5 | MGSDKIHHHHHHMFKLIIVEDEHLIRKWLEIAVDYSALGIQVVGTASHGQEGMKLIQEKEPHIVLTDITMPIMDAFMMFEATRTLSYEKVILSGYNDFQNAKKAMQYGAVDFLSKPIDTKELTECLQKIVLRLRVSTRQETPFLEEYQTLLTSIQQIDTQNQIIQQILEFVHQHYCMHFTISSIAENLGYSESYLYKVIKEDFPMTLNEYILRYRLKQAIDKMAESPNSPLSDISEQIGFSDYKYFAKVFKKYLHISPKELKLMDKNH | not soluble
6 | MDVNVNIDTNAEKQAISPYIYGTNQDFSNAKVTARRIGGNRSTGYNWENNDSNAGTDWKNESDNYWLTLYDVPKEKYNEPASVYTAFHDKSLAMGVPYSLVTLQAGGYVAADQSGPLANTDVAPSSKWKKVEFNKNGPLSLTPDTTDGSVYMDEFVNYLVNKYGSASGSKGIKGYSLDNEPSLWPSTHPLIHPDKTKCSEVLDKDTQLAQVVKKIDPAAETFGPALFGFSAFNDFNSSPDWSSVKGNYQWFIDYYLDNMKKNSDAAGKRLLDALDLHWYPEAKGGGQRVTTSDTSNVDCNKARMQAPRSLWDSTYTEDSWIGQWCKWGLPLIPKVKSSIDKYYPGTKLSFSEYNYGGEDHISGGIAQADALGVFGKYGVYFATYWECNSDKNNYVQSAFNLYNNYDGNNSKYGDTDVKCDTSDINNSSTYASVTSNDGNKMDIIVMNKNYTDSINFNFNVSSNKNYTSGQVWGFDSNSSNITKRDDVSSISGNKFTYKIPALTAVHIVLLEHHHHHH | soluble
7 | MGMLVEGVWKDVWYDTKETKGHFKRSASQFRNWVTVDGAVGPSGEGGFEAEKDRYHLYVSFACPWAHRTLIFRKLKKLEDLISVSVVDPLMLENGWEFKPEGERTPGATQDHLFGSSTLWQVYTKADPTYSGRVTVPVLWDKKRGTIVSNESAEIIRMFNVAFNDLTGSDADYYPKALRAEIDALNDVIYDTVNNGVYKAGFATTQDAYQQNAVKVFETLDMLEDRLKDRRFLFGSEQTEADWRLFTTLVRFDPVYVGHFKCNIRRIHDYPHLTGYLRDLYQTPGVPDTVDMRHIKEHYYRSHRTINPTGIVPIGPELDLTMAHGREALS | soluble
8 | MIAAYENSKWEPVKWENDMHCAVKIQDKNQWRRGQIIRMVTDTLVEVLLYDVGVELVVNVDCLRKLEENLKTMGRLSL | soluble
